Here are results for one molecule from patent US20240344028A1, “Serum-free media for producing adipocytes for animal consumption” (Mosa Meat B.V., priority 2021, published 2024).

The subject of the assay is Adipogenic progenitor cells. Nature of the assay: 2D adipogenic differentiation with DMAD components removed or at changed concentration. The class given is cell-based, bovine. The conditions noted are these: single component removed from DMAD. The procedure: At 90% confluence, proliferated MSCs were trypsinized and seeded in a 96-well collagen coated cell culture plate at 30,000 cells/cm^2 in SF-PM. After 24 hours, adipogenesis was induced by changing SF-PM to DMAD (the serum-free differentiation medium as depicted in Example 1), which was maintained on the cells for a period of 12 days with media changes every 3-4 days. As a control differentiation medium (ctrl), DMEM/F12 with 3% FBS was supplemented with 4 conventional adipogenic inducers (IBMX (Sigma Aldrich-15879; 0.5 mM), dexamethasone (Sigma Aldrich-D4902; 10 μM), rosiglitazone (Sigma Aldrich-R2408; 5 μM) and insulin (Peprotech-10-365; 10 μM)). All 4 inducers were used for the first 3 days of culture and only insulin and rosiglitazone were used for the remaining 9 days.
Cells were fixed on days 6 and 12 with 4% PFA for 20 minutes at room temperature and washed twice with PBS. Cells were then stained with Hoechst (ThermoFisher 493/503, 1:2000) and BODIPY (Sigma Aldrich 345880, 1:1000) in PBS for 30 minutes. Adipogenic differentiation was quantified using the ImageXPress Pico High Content Analyser (HCA; Molecular devices). The parameters measured were total area of lipid, lipid droplet average area and percentage of positive cells. […]

B1: BMP4: Recombinant Human BMP-4 (E. coli derived), 120-05ET from Peprotech (protein, UniProt P12644 293-408, looked up)
Bone morphogenetic protein 4: SPKHHSQRARKKNKNCRRHSLYVDFSDVGWNDWIVAPPGYQAFYCHGDCPFPLADHLNSTNHAIVQTLVNSVNSSIPKACCVPTELSAISMLYLDEYDKVVLKNYQEMVVEGCGCR
For B1, the “effect of removing the component from DMAD on percentage of positive cells and total lipid area” value is listed as “significantly decreased differentiation”.
